Test results taken from patent publication US20220363758A1 (SORRENTO THERAPEUTICS, published 2022).
Substitutions are numbered along the chain they refer to. Names and notes keep the numbering of the source. Like-named read-outs stand apart in the source and are kept apart here.

B1: CD38 A2-3H10m1 assembled with CD3-scFv tsm #5 (bispecific antibody, human IgG1, lambda, L234A L235A)
chain: EVQLVQSGAEVKKPGASVKVSCKASGYTFISYTMHWVRQAPGQGLEWMGYINPRSGYTHYNQKLKDRATLTADKSASTAYMELSSLRSEDTAVYYCARSAYYDYDGFAYWGQGTLVTVSSGGGGSGGGGSGGGGSGGGGSDIQMTQSPSSLSASVGDRVTITCSASSSVSYMNWYQQKPGKAPKRLIYDTSKLASGVPSRFSGSGSGTDFTLTISSLQPEDFATYYCQQWSSNPPTFGGGTKVEIKGGSGGDKTHTCPPCPAPEAAGGPSVFLFPPKPKDTLMISRTPEVTCVVVDVSHEDPEVKFNWYVDGVEVHNAKTKPREEQYNSTYRVVSVLTVLHQDWLNGKEYKCKVSNKALPAPIEKTISKAKGQPREPQVYTLPPSREEMTKNQVSLSCAVKGFYPSDIAVEWESNGQPENNYKTTPPVLDSDGSFFLVSKLTVDKSRWQQGNVFSCSVMHEALHNHYTQKSLSLSPGK
heavy: QVQLVESGGGLVKPGGSLRLSCAASGFTFSDDYMSWIRQAPGKGLEWVASVSNGRPTTYYADSVRGRFTISRDNAKNSLYLQMNSLRAEDTAVYYCAREGWSGEFTDWGQGTLVTVSSASTKGPSVFPLAPSSKSTSGGTAALGCLVKDYFPEPVTVSWNSGALTSGVHTFPAVLQSSGLYSLSSVVTVPSSSLGTQTYICNVNHKPSNTKVDKRVEPKSCDKTHTCPPCPAPEAAGGPSVFLFPPKPKDTLMISRTPEVTCVVVDVSHEDPEVKFNWYVDGVEVHNAKTKPREEQYNSTYRVVSVLTVLHQDWLNGKEYKCKVSNKALPAPIEKTISKAKGQPREPQVYTLPPSREEMTKNQVSLWCLVKGFYPSDIAVEWESNGQPENNYKTTPPVLDSDGSFFLYSKLTVDKSRWQQGNVFSCSVMHEALHNHYTQKSLSLSPGK
light: not shown
B2: CD3-tsm#7 (WT) scFv-Fc fusion (Fc fusion)
chain: B1 chain with R67K
notes: Wild type HuM291 VH; As for CD3-tsm#1: scFv g1 Fc fusion chain; also called wild type Hum291 scFv
B3: CD38 D8-3A1/CD3 (M48I/K67R) bispecific antibody (bispecific antibody, human IgG1, lambda, L234A L235A)
chain: B1 chain with M48I
heavy: QVQLVESGGGVVQPGGSLRLSCAASGFNVRTKYVHWVRQAPGKGLEWVSGIYSDPYTSYAYSDSVKGRFTISRDMSKNTVYLQMNRLRAEDTAVYYCARETNTGFSNSWYLDFWGQGTLVTVSSASTKGPSVFPLAPSSKSTSGGTAALGCLVKDYFPEPVTVSWNSGALTSGVHTFPAVLQSSGLYSLSSVVTVPSSSLGTQTYICNVNHKPSNTKVDKRVEPKSCDKTHTCPPCPAPEAAGGPSVFLFPPKPKDTLMISRTPEVTCVVVDVSHEDPEVKFNWYVDGVEVHNAKTKPREEQYNSTYRVVSVLTVLHQDWLNGKEYKCKVSNKALPAPIEKTISKAKGQPREPQVYTLPPSREEMTKNQVSLWCLVKGFYPSDIAVEWESNGQPENNYKTTPPVLDSDGSFFLYSKLTVDKSRWQQGNVFSCSVMHEALHNHYTQKSLSLSPGK
light: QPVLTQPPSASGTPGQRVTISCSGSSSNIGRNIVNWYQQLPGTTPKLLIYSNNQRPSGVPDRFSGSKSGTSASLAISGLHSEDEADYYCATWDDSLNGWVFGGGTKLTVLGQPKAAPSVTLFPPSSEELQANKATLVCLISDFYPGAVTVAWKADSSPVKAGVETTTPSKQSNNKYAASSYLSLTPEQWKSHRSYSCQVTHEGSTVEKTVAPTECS
B4: CD38 A2-3H10m1 assembled with CD3-scFv tsm #2 (bispecific antibody, human IgG1, lambda, L234A L235A)
chain: B1 chain with I30V
heavy: B1 heavy
light: not shown
B5: CD38 A2-3H10m1 assembled with CD3-scFv tsm #6 (bispecific antibody, human IgG1, lambda, L234A L235A)
chain: B1 chain with I30V, R67K
heavy: B1 heavy
light: not shown
B6: CD3-tsm#2 (I30V/K67R) scFv-Fc fusion (Fc fusion)
chain: B1 chain with I30V
notes: As for CD3-tsm#1: scFv g1 Fc fusion chain
B7: CD38 D8-1B5/CD3 (M48I/K67R) bispecific antibody (bispecific antibody, human IgG1, lambda, L234A L235A)
chain: B1 chain with M48I
heavy: B3 heavy with F27L, V29A, K32N
light: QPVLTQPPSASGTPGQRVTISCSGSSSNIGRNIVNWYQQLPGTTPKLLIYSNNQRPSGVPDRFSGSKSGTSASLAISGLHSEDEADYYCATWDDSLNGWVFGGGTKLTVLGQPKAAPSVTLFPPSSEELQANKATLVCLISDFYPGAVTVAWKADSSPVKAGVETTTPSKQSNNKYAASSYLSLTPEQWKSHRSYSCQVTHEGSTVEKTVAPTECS
B8: CD38 A2/CD3 (M48I/K67R) bispecific antibody (bispecific antibody, human IgG1, lambda, L234A L235A)
chain: B1 chain with M48I
heavy: B1 heavy with G100D, S102G
light: not shown
B9: CD3-tsm#1 (M48I/K67R) scFv-Fc fusion (Fc fusion)
chain: B1 chain with M48I
notes: also called CD3 scFv-Fc fusion, VH variant M48I/K67R, tsm #1
B10: CD38 D8/CD3 (M48I/K67R) bispecific antibody (bispecific antibody, human IgG1, lambda, L234A L235A)
chain: B1 chain with M48I
heavy: B3 heavy with N28I, R30S, K32N
light: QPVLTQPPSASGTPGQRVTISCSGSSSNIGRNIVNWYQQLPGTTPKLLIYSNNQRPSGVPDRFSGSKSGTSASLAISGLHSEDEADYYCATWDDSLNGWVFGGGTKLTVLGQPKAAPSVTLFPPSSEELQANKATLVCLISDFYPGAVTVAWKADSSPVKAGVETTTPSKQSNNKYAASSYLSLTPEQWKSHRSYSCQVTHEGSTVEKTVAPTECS
B11: CD3-tsm#5 (K67R) scFv-Fc fusion (Fc fusion)
chain: B1 chain
notes: as for B6
B12: CD3-tsm#3 (M48I) scFv-Fc fusion (Fc fusion)
chain: B1 chain with M48I, R67K
notes: as for B6
B13: CD38 D8-3E1/CD3 (M48I/K67R) bispecific antibody (bispecific antibody, human IgG1, lambda, L234A L235A)
chain: B1 chain with M48I
heavy: B3 heavy with G26K, F27L, R30S, T31P
light: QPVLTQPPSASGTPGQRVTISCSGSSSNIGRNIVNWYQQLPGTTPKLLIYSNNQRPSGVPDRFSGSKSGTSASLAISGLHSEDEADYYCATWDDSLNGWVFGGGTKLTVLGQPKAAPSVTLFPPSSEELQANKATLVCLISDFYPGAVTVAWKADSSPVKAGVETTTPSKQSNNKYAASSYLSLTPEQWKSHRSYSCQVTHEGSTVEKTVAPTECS
notes: also called CD38 D8-3E1/CD3 (M481/K67R)
B14: CD38 A2-3H10m1 assembled with CD3-scFv tsm #3 (bispecific antibody, human IgG1, lambda, L234A L235A)
chain: B1 chain with M48I, R67K
heavy: B1 heavy
light: not shown
B15: CD38 A2-3H10m1 assembled with CD3-scFv tsm #4 (bispecific antibody, human IgG1, lambda, L234A L235A)
chain: B1 chain with I30V, M48I
heavy: B1 heavy
light: not shown
B16: CD3-tsm#6 (I30V) scFv-Fc fusion (Fc fusion)
chain: B1 chain with I30V, R67K
notes: As for CD3-tsm#1: scFv g1 Fc fusion chain; also called CD3-tsm#6 ( (BOV))
B17: CD3-tsm#4 (I30V/M48I/K67R) scFv-Fc fusion (Fc fusion)
chain: B1 chain with I30V, M48I
notes: as for B6
B18: CD38A2-3H10m1/CD3tsm #1-scFvg1LALA-knob-in-hole bispecific antibody (bispecific antibody, human IgG1, lambda, L234A L235A)
chain: B1 chain with M48I
heavy: B1 heavy
light: not shown
notes: Three chains: anti-CD3 scFv-Fc (hole, LALA), anti-CD38 heavy chain (knob, LALA) and anti-CD38 lambda light chain; also called CD38 A2-3H10m1 assembled with CD3-scFv tsm #1; CD38A2-3H10m1/CD3tsm #1 IgG-scFv
B19: CD38 D8-3A1/CD3 mAb (antibody, V domains shown)
VH: QVQLVESGGGVVQPGGSLRLSCAASGFNVRTKYVHWVRQAPGKGLEWVSGIYSDPYTSYAYSDSVKGRFTISRDMSKNTVYLQMNRLRAEDTAVYYCARETNTGFSNSWYLDFWGQGTLVTVSS
VL: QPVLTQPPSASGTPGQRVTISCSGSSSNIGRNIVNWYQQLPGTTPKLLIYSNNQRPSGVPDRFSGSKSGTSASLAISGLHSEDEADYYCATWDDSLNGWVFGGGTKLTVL
notes: stands beside the row 'CD38 D8-3A1/CD3 IgG-scFv', so it is another molecule than m27

Assays:
[1] = target: T1, CD3 antigen expressed on cells (human CD3 epsilon) (human, UniProt P07766 23-207); experiment: flow cytometry on CD38(-) primary human T cells, mouse anti-human Fc-APC detection, GeoMean RL-H of singlets
T1 construct: also called cell surface CD3 antigen; CD3 on T cells

[2] = target: T1, CD3 antigen expressed on cells (human …); experiment: flow cytometry on CD3-bearing cells (cell type not given)
[3] = target: T2, Recombinant human CD38-his tag (human, UniProt P28907 43-300); experiment: SPR (Biacore T200), antibody as captured ligand, CD38 as sample, 1:1 binding model
T2 construct: also called recombinant CD38 antigen; CD38 antigen; not shown: his tag

[4] = target: T1, CD3 antigen expressed on cells (human …); experiment: flow cytometry on CD38(-) primary human T cells, mouse anti-human Fc-APC detection, GeoMean RL-H of singlets; remark: listed apart in the source

Binder | EC50 [2] [ng/mL] | Kd [3] [nM] | koff [3] [s⁻¹] | kon [3] [M⁻¹ s⁻¹] | further results
B1 | – | – | – | – | EC50 (read off the curve) [1]: ~0.1 ng/mL
B2 | 200 | – | – | – | –
B3 | – | 4.95 | 0.00393 | 794000 | –
B4 | – | – | – | – | EC50 (read off the curve) [4]: ~1 ng/mL
B5 | – | – | – | – | EC50 (read off the curve) [1]: ~0.1 ng/mL
B6 | 1500 | – | – | – | –
B7 | – | 4.52 | 0.00388 | 859000 | –
B8 | – | 12.3 | 0.00637 | 517000 | –
B9 | 200 | – | – | – | –
B10 | – | 20.3 | 0.011 | 541000 | –
B11 | 100 | – | – | – | –
B12 | 200 | – | – | – | –
B13 | – | 6.55 | 0.00565 | 862000 | –
B14 | – | – | – | – | EC50 (read off the curve) [4]: ~0.2 ng/mL
B15 | – | – | – | – | EC50 (read off the curve) [4]: ~0.1 ng/mL
B16 | 100 | – | – | – | –
B17 | 100 | – | – | – | –
B18 | – | 1.51 | 0.00203 | 1.35e+06 | EC50 (read off the curve) [4]: ~0.2 ng/mL
B19 | – | 9.14 | 0.00372 | 406000 | –
